The target of the assay is ryanodine receptors (rat (endogenous in rat ventricular myocytes)) (UniProt B0LPN4). Put plainly: fluorescence wash-in and wash-out in permeabilized myocytes.
Sequence of UniProt B0LPN4 (B0LPN4 whole entry): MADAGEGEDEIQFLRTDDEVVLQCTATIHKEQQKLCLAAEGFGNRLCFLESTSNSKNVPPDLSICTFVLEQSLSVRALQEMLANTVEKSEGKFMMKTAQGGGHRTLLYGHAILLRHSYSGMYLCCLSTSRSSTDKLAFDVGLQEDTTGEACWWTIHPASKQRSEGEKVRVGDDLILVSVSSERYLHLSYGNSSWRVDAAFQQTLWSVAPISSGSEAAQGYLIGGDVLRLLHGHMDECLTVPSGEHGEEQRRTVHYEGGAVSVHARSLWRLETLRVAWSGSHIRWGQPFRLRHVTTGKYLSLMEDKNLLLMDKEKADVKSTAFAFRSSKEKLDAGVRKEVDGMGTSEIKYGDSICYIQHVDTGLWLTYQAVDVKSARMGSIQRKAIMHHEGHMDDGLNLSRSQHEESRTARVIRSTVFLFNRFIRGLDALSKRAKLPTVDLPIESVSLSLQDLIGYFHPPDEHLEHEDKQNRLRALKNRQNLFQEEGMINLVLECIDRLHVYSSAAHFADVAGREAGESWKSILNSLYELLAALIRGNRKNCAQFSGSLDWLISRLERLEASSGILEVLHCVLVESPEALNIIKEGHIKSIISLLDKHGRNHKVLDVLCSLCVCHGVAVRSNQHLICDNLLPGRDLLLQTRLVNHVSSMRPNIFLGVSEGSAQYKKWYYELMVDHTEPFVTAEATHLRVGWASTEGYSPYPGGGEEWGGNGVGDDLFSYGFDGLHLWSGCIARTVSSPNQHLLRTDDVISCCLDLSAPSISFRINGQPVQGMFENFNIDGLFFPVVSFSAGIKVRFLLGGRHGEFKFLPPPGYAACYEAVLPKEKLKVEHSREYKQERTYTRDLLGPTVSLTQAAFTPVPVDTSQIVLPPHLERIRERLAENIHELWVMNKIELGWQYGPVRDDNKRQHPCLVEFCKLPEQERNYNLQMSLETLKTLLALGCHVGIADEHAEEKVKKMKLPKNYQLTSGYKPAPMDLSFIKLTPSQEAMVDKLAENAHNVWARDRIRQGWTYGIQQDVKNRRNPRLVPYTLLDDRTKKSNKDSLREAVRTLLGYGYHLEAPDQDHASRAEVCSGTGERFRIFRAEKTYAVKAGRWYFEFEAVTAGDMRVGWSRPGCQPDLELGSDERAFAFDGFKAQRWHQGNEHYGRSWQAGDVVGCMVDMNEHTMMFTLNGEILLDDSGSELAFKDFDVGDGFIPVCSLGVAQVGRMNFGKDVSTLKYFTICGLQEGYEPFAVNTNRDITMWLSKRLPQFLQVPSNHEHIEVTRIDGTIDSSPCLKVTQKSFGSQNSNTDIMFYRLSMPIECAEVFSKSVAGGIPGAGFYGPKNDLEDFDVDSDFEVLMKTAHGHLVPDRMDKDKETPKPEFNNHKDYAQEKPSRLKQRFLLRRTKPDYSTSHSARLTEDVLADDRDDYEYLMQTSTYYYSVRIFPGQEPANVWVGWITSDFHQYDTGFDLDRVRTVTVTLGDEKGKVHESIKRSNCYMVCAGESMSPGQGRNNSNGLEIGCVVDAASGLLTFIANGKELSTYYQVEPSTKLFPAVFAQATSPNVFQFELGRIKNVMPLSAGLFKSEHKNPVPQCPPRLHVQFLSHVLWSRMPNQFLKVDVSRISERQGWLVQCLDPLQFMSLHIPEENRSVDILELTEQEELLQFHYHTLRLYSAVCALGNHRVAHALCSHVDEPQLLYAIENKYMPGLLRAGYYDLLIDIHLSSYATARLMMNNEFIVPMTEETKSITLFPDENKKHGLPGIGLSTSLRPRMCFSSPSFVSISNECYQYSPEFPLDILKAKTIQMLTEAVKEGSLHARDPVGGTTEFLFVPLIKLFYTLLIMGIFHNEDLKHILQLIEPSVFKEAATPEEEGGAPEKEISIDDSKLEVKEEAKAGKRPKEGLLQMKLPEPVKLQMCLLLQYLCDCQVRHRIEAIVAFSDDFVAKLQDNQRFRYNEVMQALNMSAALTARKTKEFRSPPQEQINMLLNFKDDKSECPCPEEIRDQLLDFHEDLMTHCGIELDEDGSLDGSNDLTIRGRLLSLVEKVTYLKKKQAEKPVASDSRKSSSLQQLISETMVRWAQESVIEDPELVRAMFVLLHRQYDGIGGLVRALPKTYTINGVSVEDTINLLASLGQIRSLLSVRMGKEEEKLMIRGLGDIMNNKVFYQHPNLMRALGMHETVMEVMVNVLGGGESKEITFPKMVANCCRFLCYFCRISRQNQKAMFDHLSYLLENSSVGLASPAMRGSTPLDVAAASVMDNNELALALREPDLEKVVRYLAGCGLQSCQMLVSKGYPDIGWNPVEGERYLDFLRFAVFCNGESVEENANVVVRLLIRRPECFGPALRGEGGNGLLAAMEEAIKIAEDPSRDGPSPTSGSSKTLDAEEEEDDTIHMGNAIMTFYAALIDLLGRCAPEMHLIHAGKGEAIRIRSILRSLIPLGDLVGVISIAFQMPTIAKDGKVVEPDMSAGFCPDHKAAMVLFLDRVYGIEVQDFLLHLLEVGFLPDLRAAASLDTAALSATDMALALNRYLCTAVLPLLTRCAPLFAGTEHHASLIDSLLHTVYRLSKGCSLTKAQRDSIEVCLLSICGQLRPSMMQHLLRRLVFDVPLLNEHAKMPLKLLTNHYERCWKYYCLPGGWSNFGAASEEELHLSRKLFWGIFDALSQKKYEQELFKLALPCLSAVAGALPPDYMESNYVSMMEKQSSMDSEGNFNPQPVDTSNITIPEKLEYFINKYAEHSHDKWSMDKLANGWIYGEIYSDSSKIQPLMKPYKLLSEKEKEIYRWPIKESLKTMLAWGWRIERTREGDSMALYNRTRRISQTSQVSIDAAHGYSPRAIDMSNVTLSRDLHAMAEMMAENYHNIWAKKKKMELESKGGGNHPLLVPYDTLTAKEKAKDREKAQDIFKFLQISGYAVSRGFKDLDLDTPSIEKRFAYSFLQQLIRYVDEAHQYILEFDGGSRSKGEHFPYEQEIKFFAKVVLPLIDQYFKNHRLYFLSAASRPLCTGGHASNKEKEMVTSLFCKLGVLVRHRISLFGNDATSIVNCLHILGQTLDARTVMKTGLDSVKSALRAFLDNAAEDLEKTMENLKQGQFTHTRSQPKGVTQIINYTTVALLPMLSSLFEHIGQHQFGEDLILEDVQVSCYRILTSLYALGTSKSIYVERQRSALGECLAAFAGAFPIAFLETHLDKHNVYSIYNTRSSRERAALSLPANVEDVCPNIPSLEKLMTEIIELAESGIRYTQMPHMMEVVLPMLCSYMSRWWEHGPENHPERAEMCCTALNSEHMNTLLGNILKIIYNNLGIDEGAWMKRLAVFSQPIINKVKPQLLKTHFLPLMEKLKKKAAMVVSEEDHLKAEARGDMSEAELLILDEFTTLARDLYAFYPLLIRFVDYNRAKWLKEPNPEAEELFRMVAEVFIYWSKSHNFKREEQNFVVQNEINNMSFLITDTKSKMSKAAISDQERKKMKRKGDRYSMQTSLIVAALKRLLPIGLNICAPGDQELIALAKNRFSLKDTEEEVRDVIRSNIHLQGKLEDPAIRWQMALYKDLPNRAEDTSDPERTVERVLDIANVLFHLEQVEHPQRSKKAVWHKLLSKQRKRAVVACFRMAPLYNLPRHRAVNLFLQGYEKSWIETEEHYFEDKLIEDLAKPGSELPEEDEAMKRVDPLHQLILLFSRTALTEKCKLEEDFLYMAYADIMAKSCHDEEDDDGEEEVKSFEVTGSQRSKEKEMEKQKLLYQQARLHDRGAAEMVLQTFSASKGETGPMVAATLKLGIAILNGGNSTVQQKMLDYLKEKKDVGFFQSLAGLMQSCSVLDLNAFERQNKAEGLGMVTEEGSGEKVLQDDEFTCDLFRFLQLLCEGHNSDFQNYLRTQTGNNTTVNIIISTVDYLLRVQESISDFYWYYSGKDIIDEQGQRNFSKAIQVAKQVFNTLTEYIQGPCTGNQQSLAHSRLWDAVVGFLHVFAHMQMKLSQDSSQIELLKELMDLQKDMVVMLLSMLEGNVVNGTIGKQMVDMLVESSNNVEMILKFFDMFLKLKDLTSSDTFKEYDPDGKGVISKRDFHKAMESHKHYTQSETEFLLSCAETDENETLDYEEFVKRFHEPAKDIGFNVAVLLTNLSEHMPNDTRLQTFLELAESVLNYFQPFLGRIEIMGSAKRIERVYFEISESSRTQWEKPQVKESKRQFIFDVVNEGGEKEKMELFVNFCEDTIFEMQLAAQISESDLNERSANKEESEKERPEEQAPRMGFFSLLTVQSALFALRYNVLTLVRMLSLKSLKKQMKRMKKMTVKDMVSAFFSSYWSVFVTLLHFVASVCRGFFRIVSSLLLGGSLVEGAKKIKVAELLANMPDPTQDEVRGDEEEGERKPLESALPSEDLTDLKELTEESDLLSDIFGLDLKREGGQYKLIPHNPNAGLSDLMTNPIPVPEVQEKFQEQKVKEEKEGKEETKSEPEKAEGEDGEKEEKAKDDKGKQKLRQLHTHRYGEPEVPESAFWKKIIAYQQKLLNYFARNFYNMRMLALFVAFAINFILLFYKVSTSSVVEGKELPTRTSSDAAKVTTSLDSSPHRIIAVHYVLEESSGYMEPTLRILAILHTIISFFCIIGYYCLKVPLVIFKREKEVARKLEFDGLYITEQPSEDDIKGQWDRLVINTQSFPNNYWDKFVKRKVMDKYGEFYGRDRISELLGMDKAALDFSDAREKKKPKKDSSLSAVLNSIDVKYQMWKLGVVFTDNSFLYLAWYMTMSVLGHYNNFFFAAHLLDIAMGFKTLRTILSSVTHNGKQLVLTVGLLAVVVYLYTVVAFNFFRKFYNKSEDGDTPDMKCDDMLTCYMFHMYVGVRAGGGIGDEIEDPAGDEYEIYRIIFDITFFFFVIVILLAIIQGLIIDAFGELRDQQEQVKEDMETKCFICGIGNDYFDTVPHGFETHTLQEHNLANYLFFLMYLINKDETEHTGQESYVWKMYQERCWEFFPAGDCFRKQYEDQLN

Turning to GCaMP2.2-FKBP12.6, the Kd worked out at 0.0155 µM.

The substance GCaMP2.2Low-FKBP12.6 had a dissociation constant (Kd) of 0.0438 µM.

Values taken from article PMC4132890.
